Data: patent US20050175608A1 (Kyowa Kirin, published 2005)
Positions count from the first letter of the chain named.

B1: anti-FGF-8 neutralizing chimeric antibody KM3334 (antibody, V domains shown)
VH: QVQLQQSGAEVARPGASVKLSCKASGYTFTDYYLNWVKQRSGQGLEWIGEIDPGSDSIYYNENLEGRATLTADKSSSTAYMQLNSLTSEDSAVYFCARYGYSRYDVRFVYWGQGTLVTVST
VL: DVLMTQTPLSLPVSLGDQASISCRSSQSLVHSNGRTYLEWYLQKPGQSPKVLIYKVSNRISGVPDRFSGSGSGTDFTLKISRVEAEDLGVYFCFQGSHVPYTFGGGTKLEIK
notes: expressed in YB2/0 cells; also called human chimeric antibody KM3334
B2: anti-FGF-8 neutralizing CDR-grafted antibody HV0LV3-1/CHO (antibody, V domains shown)
VH: QVQLVQSGAEVKKPGASVKVSCKASGYTFTDYYLNWVRQAPGQGLEWMGEIDPGSDSIYYNENLEGRVTITADTSTSTAYMELSSLRSEDTAVYYCARYGYSRYDVRFVYWGQGTLVTVSS
VL: B1 VL with L3V, T7S, S14T, L15P, D17E, Q18P, K50Q, L88V, G105Q, L109V
notes: HV.0 + LV.3-1; also called KM8036
B3: anti-FGF-8 neutralizing chimeric antibody KM3034 (antibody, V domains shown)
VH: B1 VH
VL: B1 VL
notes: expressed in CHO/DG44 cells; also called human chimeric antibody KM3034
B4: anti-FGF-8 neutralizing CDR-grafted antibody HV0LV4-2/CHO (antibody, V domains shown)
VH: B2 VH
VL: B1 VL with L3V, T7S, D17E, Q18P, K50Q, V51L, L88V, G105Q, L109V
notes: HV.0 + LV.4-2; CHO/DG44 cell-derived
B5: anti-FGF-8 neutralizing CDR-grafted antibody HV0LV6/CHO (antibody, V domains shown)
VH: B2 VH
VL: B1 VL with L3V, T7S, D17E, Q18P, L88V, G105Q, L109V
notes: HV.0 + LV.6; CHO/DG44 cell-derived; also called KM8034
B6: anti-FGF-8 neutralizing CDR-grafted antibody HV0LV0/CHO (antibody, V domains shown)
VH: B2 VH
VL: DIVMTQSPLSLPVTPGEPASISCRSSQSLVHSNGRTYLEWYLQKPGQSPQLLIYKVSNRISGVPDRFSGSGSGTDFTLKISRVEAEDVGVYYCFQGSHVPYTFGQGTKVEIK
notes: HV.0 + LV.0; CHO/DG44 cell-derived
B7: anti-FGF-8 neutralizing CDR-grafted antibody HV0LV4-1/CHO (antibody, V domains shown)
VH: B2 VH
VL: B6 VL with I2V, Q50K, L51V, Y92F
notes: HV.0 + LV.4-1; CHO/DG44 cell-derived
B8: anti-FGF-8 neutralizing CDR-grafted antibody HV0LV3-2/CHO (antibody, V domains shown)
VH: B2 VH
VL: B6 VL with T14S, P15L, Y92F
notes: HV.0 + LV.3-2; CHO/DG44 cell-derived
B9: anti-FGF-8 neutralizing CDR-grafted antibody HV0LV2-1/CHO (antibody, V domains shown)
VH: B2 VH
VL: B6 VL with L51V, Y92F
notes: HV.0 + LV.2-1; CHO/DG44 cell-derived
B10: anti-FGF-8 neutralizing CDR-grafted antibody HV0LV2-2/CHO (antibody, V domains shown)
VH: B2 VH
VL: B6 VL with I2V, Y92F
notes: HV.0 + LV.2-2; CHO/DG44 cell-derived
B11: anti-FGF-8 neutralizing CDR-grafted antibody HV0LV6 (antibody, V domains shown)
VH: B2 VH
VL: B6 VL with I2V, T14S, P15L, Q50K, L51V, Y92F
notes: HV.0 + LV.6; YB2/0 cell-derived; also called KM8037
B12: anti-FGF-8 neutralizing CDR-grafted antibody HV6LV6 (antibody, V domains shown)
VH: B2 VH with K12A, K13R, A40R, P41S, M48I, Y95F
VL: B6 VL with I2V, T14S, P15L, Q50K, L51V, Y92F
notes: HV.6 + LV.6
B13: anti-FGF-8 neutralizing CDR-grafted antibody HV0LV0 (antibody, V domains shown)
VH: B2 VH
VL: B6 VL
notes: HV.0 + LV.0
B14: anti-FGF-8 neutralizing CDR-grafted antibody HV0LV4-3/CHO (antibody, V domains shown)
VH: B2 VH
VL: B6 VL with T14S, P15L, L51V, Y92F
notes: HV.0 + LV.4-3; also called KM8035
B15: anti-FGF-8 neutralizing CDR-grafted antibody HV0LV3-3/CHO (antibody, V domains shown)
VH: B2 VH
VL: B6 VL with T14S, P15L, L51V
notes: HV.0 + LV.3-3; CHO/DG44 cell-derived

Molecular target: T1, BSA-compound 1 (conjugate of the human FGF-8 partial peptide compound 1 with bovine serum albumin) (human, not fully specified; C-terminal cysteine conjugated to BSA through SMCC)
T1 construct: Coated on ELISA plates; the BSA carrier is not written as a chain
T1 peptide: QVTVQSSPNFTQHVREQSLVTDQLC
Test: ELISA, plate coated with BSA-compound 1; positive control
Procedure: The above-prepared BSA-compound 1 solution was dispensed at a 96-well ELISA plate (manufactured by Greiner) at a concentration of from 0.5 to 1.0 μg/mL in an amount of 50 μL/well, and allowed to stand overnight at 4° C. for adsorption. After washing with PBS, 1% BSA-containing PBS (hereinafter referred to as BSA-PBS) was added in an amount of 100 μL/well and reacted at room temperature for 1 hour to block a remaining active group. After washing each well with 0.05% Tween-containing PBS (hereinafter referred to as Tween-PBS), the culture supernatant or the purified antibody of the tranformants was added in an amount of 50 μL/well, and the reaction was conducted at room temperature for 1 hour. After the reaction, each well was washed with Tween-PBS, a peroxidase-labeled goat anti-human IgG (H & L) antibody solution (manufactured by American Qualex) diluted 3,000 to 6,000 times with BSA-PBS was added as a second antibody solution in an amount of 50 μL/well. The reaction was performed at room temperature for 1 hour. […] Then, absorbance was measured at 415 nm.

Question: Does B1 bind?
Answer: binds

Molecular target: T2, compound 1 as a partial peptide of FGF-8 with the C terminal labeled with biotin (human, C terminal labeled with biotin)
T2 construct: Captured on Sensor Chip SA (35 RU) for BIAcore 2000; also called compound 1 labeled with biotin; FGF-8 peptide
T2 peptide: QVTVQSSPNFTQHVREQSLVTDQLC
Test: BIAcore 2000, biotin-labeled compound 1 on SA chip (35 RU), antibody 16.7 µg/mL; dissociation hardly observed
Procedure: (§1) In order to examine the FGF-8 binding activity of the anti-FGF-8 neutralizing CDR-grafted antibodies obtained in 5. of Reference Example 3, the FGF-8 binding activity of the various anti-FGF-8 neutralizing CDR-grafted antibodies was measured and compared through BIAcore 2000 using compound 1 as a partial peptide of FGF-8 with the C terminal labeled with biotin in the following manner. The anti-FGF-8 neutralizing chimeric antibody KM3034 derived from CHO/DG44 cells obtained in 3. (1) of Reference Example 1 was used as a positive control.
(§2) HBS-EP was used as a sample diluent and a buffer during measurement. First, Sensor Chip SA (manufactured by BIACORE) was installed, and 5 μL of compound 1 labeled with biotin which had been adjusted to 0.05 μg/mL was added at a flow rate of 5 μL/min. Then, 5 μL of a 10 mmol/L glycine-hydrochloride solution (pH 1.5) was added twice continuously to wash the tip surface. The immobilization amount of the FGF-8 peptide was 35 RU.
60 μL of each of the antibody solutions was added to an FGF-8 peptide immobilized flow cell at a flow rate of 20 μL/min, and the dissociation reaction was then monitored for 3 minutes. After the dissociation reaction, 20 μL of 10 mmol/L glycine-hydrochloride solution (pH 1.5) was added twice continuously to regenerate the chip surface. This cycle was performed on the antibody solution at various concentrations (from 50 to 1.85 μg/mL) to obtain sensor grams at various concentrations. The sensor grams of the respective antibodies were converted to sensor grams of specific reactions by deduceing a sensor gram obtained using the chimeric antibody KM871 to GD3 as a negative control.

Question: Does B2 bind?
Answer: binds

Question: Does B3 bind?
Answer: binds

Question: Does B4 bind?
Answer: binds

Question: Does B5 bind?
Answer: binds

Question: Does B6 bind?
Answer: binds

Question: Does B7 bind?
Answer: binds

Question: Does B8 bind?
Answer: binds

Question: Does B9 bind?
Answer: binds

Question: Does B10 bind?
Answer: binds

Molecular target: T1, BSA-compound 1 (conjugate of the human …)
Test: ELISA, plate coated with BSA-compound 1

Question: Does B11 bind?
Answer: binds

Question: Does B12 bind?
Answer: binds

Question: Does B13 bind?
Answer: binds

Molecular target: T3, FGF-8 (manufactured by R & D) (Homo sapiens (Human), UniProt P55075 23-215)
T3 sequence: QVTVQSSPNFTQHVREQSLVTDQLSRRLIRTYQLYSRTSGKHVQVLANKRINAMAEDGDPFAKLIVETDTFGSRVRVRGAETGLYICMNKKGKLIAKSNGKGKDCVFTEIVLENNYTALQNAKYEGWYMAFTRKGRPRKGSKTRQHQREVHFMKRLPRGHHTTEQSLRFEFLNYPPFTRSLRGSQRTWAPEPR
Test: cell-based or functional assay

Question: B14 was tested. Which “FGF-8 neutralizing activity (FGF-8-dependent growth of SC-3 cells), relative to KM3034” value did it give?
Answer: ~0.5 fold of KM3034

Question: Which “FGF-8 neutralizing activity (FGF-8-dependent growth of SC-3 cells), relative to KM3034” value does the source give for B15 here?
Answer: ~0.5 fold of KM3034

Molecular target: T2, compound 1 as a partial peptide of …
Test: BIAcore 2000, biotin-labeled compound 1 on SA chip, antibody 16.7 µg/mL; dissociation hardly observed
Procedure: as §1, §2
60 μL of each of the antibody solutions was added to an FGF-8 peptide immobilized flow cell at a flow rate of 20 μL/min, and the dissociation reaction was then monitored for 3 minutes. After the dissociation reaction, 20 μL of 10 mmol/L glycine-hydrochloride solution (pH 1.5) was added twice continuously to regenerate the chip surface. […]

Question: Does B14 bind?
Answer: binds

Question: Does B15 bind?
Answer: binds
